The target in test [1] is T1, canine PepT1 (cPepT1) (canine, UniProt Q8WMX5 1-708).
T1 sequence: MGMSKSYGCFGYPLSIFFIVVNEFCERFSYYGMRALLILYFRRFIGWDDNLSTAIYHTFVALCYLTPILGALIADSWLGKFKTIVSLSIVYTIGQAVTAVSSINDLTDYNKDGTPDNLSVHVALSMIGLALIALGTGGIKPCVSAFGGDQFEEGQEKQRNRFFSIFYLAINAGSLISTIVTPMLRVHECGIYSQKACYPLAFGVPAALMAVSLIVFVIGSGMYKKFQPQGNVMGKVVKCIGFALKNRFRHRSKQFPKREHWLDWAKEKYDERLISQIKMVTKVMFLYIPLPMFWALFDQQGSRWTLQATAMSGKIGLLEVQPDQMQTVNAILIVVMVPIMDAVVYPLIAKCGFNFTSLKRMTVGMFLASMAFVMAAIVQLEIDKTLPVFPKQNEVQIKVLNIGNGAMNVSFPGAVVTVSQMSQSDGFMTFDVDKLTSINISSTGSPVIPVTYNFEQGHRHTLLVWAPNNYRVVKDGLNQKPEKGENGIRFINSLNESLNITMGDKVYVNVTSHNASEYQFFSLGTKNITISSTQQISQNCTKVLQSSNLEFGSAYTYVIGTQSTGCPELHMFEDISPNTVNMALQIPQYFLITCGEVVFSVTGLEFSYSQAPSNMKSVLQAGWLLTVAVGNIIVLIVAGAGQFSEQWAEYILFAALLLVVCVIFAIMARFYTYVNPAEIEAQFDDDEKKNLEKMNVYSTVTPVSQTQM
Description: cell-based or functional assay.

In test [2] the target is T1, canine PepT1 (cPepT1). Description: inhibition of H+-dependent 100 µM [3H]GlySar uptake by MDCK cells; Ki by graphical analysis of IC50 experiments; competitor GlySar.
In test [3] the target is T1, canine PepT1 (cPepT1). Description: cell-based or functional assay. This is another data set of the same source.
The target in test [4] is T1, canine PepT1 (cPepT1). As to the kind of experiment: cell-based or functional assay. This is another data set of the same source.

Read-outs that look alike come from different tables or passages of the source. Square brackets hold non-standard residues; d marks the D form. Ends that are not written are not given here. βAla = NCCC(=O)O

In the case of LeuMet (peptide), the % inhibition of H+-dependent GlySar uptake (100 µM substrate, 100 µM GlySar, MDCK cells; Leu-containing peptides experiment) in test [1] was 80%.
With MetMet (peptide), in test [1], the % inhibition of H+-dependent GlySar uptake (1 mM substrate, 100 µM GlySar, MDCK cells) amounted to 100%.
Still for that read-out and setting: in the case of MetPhe (peptide) it was 100%.
For the molecule TrpGlyGly (peptide), in test [1], the % inhibition of H+-dependent GlySar uptake (1 mM substrate, 100 µM GlySar, MDCK cells) was 33% and the inhibition of 100 µM GlySar uptake by 1 mM peptide, MDCK cells turned out to be 73%.
As for TrpLeu (peptide), in test [1], the % inhibition of H+-dependent GlySar uptake (100 µM substrate, 100 µM GlySar, MDCK cells; Leu-containing peptides experiment) was 94%; the % inhibition of H+-dependent GlySar uptake (100 µM substrate, 100 µM GlySar, MDCK cells; Trp-containing peptides experiment) worked out at 92%; the % inhibition of H+-dependent GlySar uptake (1 mM substrate, 100 µM GlySar, MDCK cells) was 116%; the % inhibition of pH 6.0 uptake, 10 mM competitor, collagen was 8%. For the same molecule, in test [1], the % inhibition of pH 6.0 uptake, 10 mM competitor, poly-L-lysine was found to be 8.1%; the Glysylsarcosine uptake, pH 6.0, with 10 mM competitor, MDCK cells on collagen (pmol 30 min^-1 mg^-1 protein) is 5.21; the Glysylsarcosine uptake, pH 6.0, with 10 mM competitor, MDCK cells on poly-L-lysine (pmol 30 min^-1 mg^-1 protein) was 3.44; the inhibition of H+-dependent 100 µM GlySar uptake by 1 mM peptide, MDCK cells worked out at 117%. In test [1], this molecule displayed an inhibition of H+-dependent GlySar uptake by 10 mM peptide, MDCK cells on collagen of 92% and an inhibition of H+-dependent GlySar uptake by 10 mM peptide, MDCK cells on poly-L-lysine of 92%. Moreover, the inhibitory constant (Ki) (as a rule, a measure of affinity in units of concentration, obtained from inhibition or displacement) in test [2] came out at 200 nM.
Take TrpTrp (peptide): in test [1], the % inhibition of H+-dependent GlySar uptake (100 µM substrate, 100 µM GlySar, MDCK cells; Trp-containing peptides experiment) was 62% and the % inhibition of H+-dependent GlySar uptake (1 mM substrate, 100 µM GlySar, MDCK cells) stood at 119%. In test [2], this molecule yielded an inhibition constant Ki of 750 nM.
For glycylsarcosine (GlySar) (peptide), in test [1], the Km of H+-dependent GlySar uptake by MDCK cells (FIG. 12 legend) was found to be 1000 µM; the apparent Km of H+-dependent GlySar uptake by MDCK cells grown in LHM was 1100 µM; the apparent Km of total GlySar uptake by confluent MDCK cells, pH 6.0 turned out to be 4 mM; the self-inhibition of 100 µM GlySar uptake by 1 mM GlySar, MDCK cells worked out at 64%.
Regarding LW [LeuTrp], in test [3], the “inhibition of H+-dependent 100 µM GlySar uptake by 1 mM peptide, MDCK cells” value was 114%. For the same molecule, the “% inhibition of H+-dependent GlySar uptake (1 mM substrate, 100 µM GlySar, MDCK cells)” value in test [4] was found to be 113%.
As for MGMM [MetGlyMetMet (SEQ ID NO:10)], in test [4], the “% inhibition of H+-dependent GlySar uptake (1 mM substrate, 100 µM GlySar, MDCK cells)” value was 50%.
Same read-out and setting: in the case of [βAla]-His [Carnosine (β-AlaHis)] it was 50%.
With GGGG [[Gly]4], the “inhibition of H+-dependent 100 µM GlySar uptake by 1 mM peptide, MDCK cells” value in test [3] came to 23%. In addition, the “% inhibition of H+-dependent GlySar uptake (1 mM substrate, 100 µM GlySar, MDCK cells)” value in test [4] was determined as 19%.
The corresponding values for GGGGG [[Gly]5] are 7.3% and 9%.

For the origin of these results see patent US20030170748A1 (IAMS, published 2003).
